# Assay results reported in the nanobody polyreactivity screen of Harvey et al. (2022).
# Test: yeast display, Sf9 membrane polyspecificity reagent, FACS + sequencing; frameworks hold sequencing errors
# Summary of the method: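 Using colony PCR, genes from sorted yeast display clones were amplified, then sequenced on MiSeq at 2 × 250 and filtered by CDR length. The clones had been stained with 10% biotinylated, detergent-solubilized Sf9 membrane reagent for 1 hour at 4 °C and sorted by FACS into low and high (top ~1%) gates on anti-HA and streptavidin fluorescence. Polyreactivity labels come from the gate of origin.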
row,Sequence,polyreactivity (PSR sort gate)
1,QVQLEESGGGLVQAGGSLRLSCAASGSTVWANAMGWYRPAPGKERELVAAITSTGITYYADSVKGRFTISRDNAKNTVYLQMNSLTPEDTAVYYCAASFPGAGYGMDYWGQGTQVTVSS,low polyreactivity
2,QVQLEESGGGLVQAGGSLRLSCAASGTILDSNAIGWYRQAPGKERELVAAITSCGSTYYADSVKGRFTISRDNAKNTVYLQMNSLKPEDTAVYYCAAAYLGYVAVQPSYEVGYWGQGTQVTVSS,low polyreactivity
3,QVQLEESGGGLVQAGGSLRLSCAASGYTFGTYTMGWYRQAPGKERELVAGIDSGGTTNYADSVKGRFTISRDNAKNTVYLQMNSLKPEDTAVYYCTAYHLLIFDYYLGLYYYRGNYYWGQGTQVTVSS,low polyreactivity
4,QVQLEESGGGLVQAGGSLRLSCAASVSIFESYAKGWNRQAPGKEREFVAAISDSGADTYYADSVKGRFTISRDNAKNTVYLQMNCLKPEDTAVYYCATDDYFSSYGYFLDGYWGQGTQVTVSS,low polyreactivity
5,QVQLEESGGGLVQAGGSLRLSCAATASIFDYYAMGWYRQAPGKERELVAAISGTGGSTYYADSVMGRFTISRDNAKNTVYLQMNSLKPEDTAVYYCNAARVIRTALRNDGTFDYWGQGTQVTVSS,high polyreactivity
6,QVQLEESGGGLVQAGGSLRLSCADSGITFYLNAMGWYRQAPGKERELVADITVSGGSTYYADSVKGRFTISRDNAKNTVYLEMNSLKPEDTAVYYCAADMTISYSQEYYFWGQGTQVTVSS,low polyreactivity
7,QVQLEESGGGLVQAGGSLRLSCAPSVIIFPAYDMGWYRQAPGKERELVAAIRTSGTSTYYADSVKGRFTISRDNAKNTVYLEMNSLKPDDTAVYYCGAYQAYGGDYWGQGTQVTVSS,high polyreactivity
8,QVQLEESGGGLVQAGGSLRLSCASYGSIFGHYAMGLYRQAPGKARELVAGISKSGGRTYDADSVKGRFTISRDNAKNTVFLQMNSLKPEDTAVYYCNALVTRYQSLDRLGDYWGQGTQVTVSS,high polyreactivity
9,QVQLEESGGGLVQAGGSLRLSCPASGSIFSWNAMGWYRQSPGKERELVATITWNGGRTYYADSVKGRFTISRDNAKNTVYLQMKSLKPEDTAVYYCAARYYVYWTYPNRVLSYYYWGQRTQVTVSS,high polyreactivity
10,QVQLEESGGGLVQAGGSLRLSFAASISSINAMGWYRQAPGKESELVAAIRCSGSSTYYADSVKGRFTISRDNAMITFYLQMNSVKPEDTAVYYCAADTSTGDRGFDYWGHGTQVTVSS,high polyreactivity
11,QVQLEESGGGLVQAGGSLRLSGAASGRTSDGYAMGWYRQAPGKERELVAGITEGGGDTYYADSVKGRFTMSRDTAKNTVYLQMNSLKPEDPALYYCNAVEGSRLPYDYGGQGTQVTVSS,low polyreactivity
12,QVQLEESGGGLVQAGGSLRLSSAASGTISATYAMGWYRQAPGKERELVAAISRNGGSTYYADSVKGRFTISRDNAKNTVYLQMNSLKPEDTAVYYCATSSSKSMYWGQGTQVTVSS,high polyreactivity
13,QVQLEESGGGLVQAGGSLRLTCAACGSIFGPNAMGWYRQAPGKERELVAAIDSSDGSTYYADSVKGRFTISRDNAKNSVYLQMNSLKPEDTAVYYCADELGYIYYSYWWQYDYWGQGTQVTVSS,high polyreactivity
14,QVQLEESGGGLVQAGGSLRLTCAASGFIFDDNAMGWYRQAPGKERELVAAISQGAGRTYYADSVKGRFTISRDNAKNTVYLQMNSLKPEDTAVYYCNSGRPKYWYGSKYDYWGQGTQVTVSS,low polyreactivity
15,QVQLEESGGGLVQAGGSLRLTCAASGSILVYNAMGWYRQAPGKERELVAGISSSGTRTYYADSVKGRFTISRDNAKITFYLQMNSLKPEDTAVYYCNALPVRGHQEYDSWGQGTQVNVSS,high polyreactivity
16,QVQLEESGGGLVQAGGSLSLSCAASGSIFSNYAMGWYRQAPGKERELVAAIRISGGSTKYADSVKGRFTISRDNAKNTVYLQMNSLKPEDTAVYYCAAANSKRHRRYNYWGQGTQVTVSS,high polyreactivity
17,QVQLEESGGGLVQAGGSLSVSCAASGSICRNYAMGWYLQAPGKERELVAAISVRGGSTYYADSVKGRFTISRDNAKNTVYLQMHSLKPEDTAGYYCNAVHHDTISDYWGQGTQVTVSS,high polyreactivity
18,QVQLEESGGGLVQAGGTLRLSCAASGGIIVSYAMGWYRPAPRKERELVAAITSGGGTSYADSVKGRFTISRDNAKNTVYLQLNSLKPEDTAVYYCNADGYLAERFVIRLVEFRDYDYWGQGTQVTVSS,low polyreactivity
19,QVQLEESGGGLVQAGGTLRLSCAASVGIFNYYTMGWYREAPGKERELVAAITRGGSTYYADSVKGRFTISRDNAKNTVYLQMNSLKPEDTAVYYCAAVWRRYDKSPLEGSWGQGTQVTLSS,high polyreactivity
20,QVQLEESGGGLVQAGRSLRLSCAASGRIFTYYSMGWYRQAPWKERELVAAISRSGRTYYADSVKGRFTISRDNAKNTVYLQMNILIPEDTAVYYCAAEYYYSWFEYWGQGTQVTVSS,high polyreactivity
21,QVQLEESGGGLVQAGVSLRLSCAASGFTFDRYAMGSYRQAPAKEREMVAALSRSGTSTYYADSVKGRFTISRDNAKYTVYLQMNSLKPEDNAVYYCATRYTVYFPSRLSQYDYWGQGTQVTVSS,high polyreactivity
22,QVQLEESGGGLVQAGVSLRLSCAASGSTFGYYAMGWSRQAPGKERELVAAITSGGTTNYADYVKGRFTISRYNEKNTVYLQMYSLKPEDTAVYYCNAVGTFVRYWTDGRDGVTYDFWGQGTQVTVSS,low polyreactivity

row,Sequence,polyreactivity (PSR sort gate)
1,QVQLEESGGGLVQEGGSLRLSCSASGRTFRYAMGWYRQAPGKERELVAAISWRGGSTFYADSVKGRFTISRDNAKNTVYLQMNSLKPEDTAVYYCATEFRYHYLSTWSWRYYYWGQGTQVTVSS,low polyreactivity
2,QVQLEESGGGLVQPGGSLRLSCAASGTTIGHNAMGLYREAPGKERELVAAISNSGTRTYYADSVKGRFTISRDNAKNTVYLQMNILKPEDTAVYDCAARYYHIYTKYLQGSDYWGQGTQVTVSS,high polyreactivity
3,QVQLEESGGGLVQSGGSLRLSCAASGRTFSGYAMGSYRQAPGKERELVSAISFSGGSTYYADSVKGRFTISRDNAMNTVYLQMNSLIPEDTAVYYCNAYSWYNGIGNYDYWGQGTQVTVSS,low polyreactivity
4,QVQLEESGGGVVQAGGSLRLSCAASGRTFRWYAMGWYRQAPGKERELVATINSGGTTNYADSVKGRFTISRDNAKNTVYLQMNSLKPEDTAVYYCAATNRGPGHDYWGQGTQVTVSS,low polyreactivity
5,QVQLEESGGGVVQAGGSLRLSCAASGSTFLQYAMGWYRQATGKERELVAAISWRAGSTYYADSVKGRFTISRDTAQNTVYLQMNSLKPEDTAVYYCAADRNGWRYELDDYDYWGQGTQVTVSS,low polyreactivity
6,QVQLEESGGRLVQAGGSLRLSCAASGRILRRYTMGWYRQAPGKETELVAAISSGGNTYYADSVKGRFTISRDNAKNTVYLQMNSLKPEDTAVDYCAARVRRYWEYDYWGQGTQVTVSS,low polyreactivity
7,QVQLEESGGRLVQAGGSLRLTSAASGGIFSVYAMGWYRQAPGKERQLVASITVSGGSTSYADSVKGRFTISRDNAKNTVYLQMKSLKPEDTAVYYCAVYQYVGYTMDYWGQGTKVTVSS,low polyreactivity
8,QVQLEESGRGLVQAGGSLRISCAASGRTYTYYALGWYRQAPGKERELVAAISQSGGSTYYADSVKGRFTISRDNAKNTVYLQMNSLKPEDTAVYYCASVWRTRWAPGYYWGQGTQVTVSS,high polyreactivity
9,QVQLEESGVGLVQAGGSLRLSCAASGSIFPAYAMGSYRQAPGKERELLAAITFSGGRTYYADSVKGRLTISRDNAKNTFYLQMNSLKPEDTAVYYCAAYGAPSGTGAKYGYWGQGTQVTVSS,low polyreactivity
10,QVQLEESGVGVVLAGGSRSLSCAASGRIFQYNAMGWNRQAPGKERELVAAISYRGGSTYYADSVKGRFTISRDNAKYTVYLQLNSLKPEDTAVYYCAVEYPVYYYVEYDYWGQGTQVTVSS,high polyreactivity
11,QVQLEESRGGLVQAGGSLRLSCAASGSIFGYNTMGWYRQAPRKERELVAAISKSGGSTYYADSEKGRFTLSRDTEKNTVYLQMNSLKLEDTAVYYCATYAKQLSPYYYWGQGIQVTVSS,high polyreactivity
12,QVQLEESRGGLVQAGGSLRLSCAASGSTFVINDMGWYRQAPGKETELVAAISKSGGRTYYADSVKGRFTISRDNATNTVYLQMNSLKPEDTAVYYCAAVSQRTRYGYWGQGTQVTVSS,high polyreactivity
13,QVQLEESRGGLVQAGGSLRLSSADSGSTFDYYAKGWYRQAPGKERELVAAITSTGRTYYADSVKGRFTISRDNAKNTVYLQMNSLKPEDTAVYYCAADLPWGPLFDYWGQGTQVTVSS,low polyreactivity
14,QVQLEESRRGLVQARGSLRLSCASSGYIFLYYALGCYRQAPGKERELVAAITTRGGRTYYADSVKGRFTISRDNAKNTVYVQMNSLKPEDTAVYYCAVEVSWSYYSYGYWGQGTQVTVSS,low polyreactivity
15,QVQLEESVGGLVQAGGSLRLSCAASGSISYKYLMGWYRQAPGKEREFVASMTRIGGSTYYADSVKGRFTISRDNAKNTVYLQMNSLNAEDTAVYYCAADYAIGRLRRGDDYWGQGTQVTVSS,low polyreactivity
16,QVQLEESVGGLVQAGGSLRLSCAASGSTFVYYGMGWYRQAPGKERELVAAITDIGDSTNYADSVKGRFTISRDNAKNTVYLQMNSLKPDDTAVYYCAASGRSVPYYGSPRNDYWGQGTQVTVSS,low polyreactivity
17,QVQLEESVGGLVQEGGSLRLTCAASGRIFGNTMGWYRQAPWKEMELVAAITRSGVSTYYADSVKGRFTSSRDNAKNTVYLQMNSLKPEDTAVYYCADASSYYRGHYDYWGQGTQVTVSS,high polyreactivity
18,QVQLEETRGCLVQAGGSLRLSCAASGIILYAYAMGWYRQAPRKERELVAAITRRGGRTYYADSVKGRFTISRDNAKYTVYLQMNSLKPVDTAVYYGATVQSGRVRTYDYWGQGTLVTVSS,high polyreactivity
19,QVQLEEYGGGLVQAGGSLRLSCAAAGFTCGGYAMGWYRQAPGKDRELVATITRVGSTNYADSVKGRFTISRDNAKNTVYLQMNSLKPEDTAVYYCNTRRVYGHGNAPYDSWGQATQVTVSS,low polyreactivity
20,QVQLGDSGGGLVQAGGSLRLSCAASGSIFVGYAMGWYRQAPGKERELVAAISWSGDSTYYAVSVKGRFTMSRDNAKNTVYLQMNSLKPEDTAVYYCAVDYAENGPRREVEYDYWGQGTQVTVSS,low polyreactivity
21,QVQLGDSGGGLVQAGGSLRLSCAPSGSIFQRYAMGWYRLAPGKERELVAAISYNGGSTYYADSVKGRFTISRDNAKNTVYLQMNSLKPEDTAVYYCAARGYRKTRFDYWGQGTKVTVSS,high polyreactivity
